Assay [1] concerns the target T1, SEQ ID NO 110 (15-residue oligopeptide of human gp130) (human, also: linker added for immobilisation).
T1 construct: also called 配列番号110
T1 peptide: VIILKYNIQYRTKDA
The experiment in a line: peptide microarray, antibody at 10 ug/mL, fluorescence.

For assay [2], the target named is T2, SEQ ID NO 127 (15-residue oligopeptide of human gp130) (human, also: linker added for immobilisation).
T2 construct: also called 配列番号127
T2 peptide: VQDLKPFTEYVFRIR
The assay is described as above.

For assay [3], the target named is T3, SEQ ID NO 128 (15-residue oligopeptide of human gp130) (human, also: linker added for immobilisation).
T3 construct: also called 配列番号128
T3 peptide: DLKPFTEYVFRIRCM
Described as above.

The target in assay [4] is T4, SEQ ID NO 108 (15-residue oligopeptide of human gp130) (human, also: linker added for immobilisation).
T4 construct: also called 配列番号108
T4 peptide: SIKSVIILKYNIQYR
Described as above.

In assay [5] the target is T5, SEQ ID NO 109 (15-residue oligopeptide of human gp130) (human, also: linker added for immobilisation).
T5 construct: also called 配列番号109
T5 peptide: KSVIILKYNIQYRTK
Described as above.

For assay [6], the target named is T6, 可溶性ヒトgp130受容体 (soluble human gp130 receptor, extracellular region of SEQ ID NO 1 with six histidines) (human, UniProt P40189 23-619).
T6 construct: Secreted from CHO DG44 cells and purified on HisTrap; no cleavage site is stated; also called 可溶性ヒトgp130受容体タンパク質; ヒト可溶性gp130受容体
T6 sequence: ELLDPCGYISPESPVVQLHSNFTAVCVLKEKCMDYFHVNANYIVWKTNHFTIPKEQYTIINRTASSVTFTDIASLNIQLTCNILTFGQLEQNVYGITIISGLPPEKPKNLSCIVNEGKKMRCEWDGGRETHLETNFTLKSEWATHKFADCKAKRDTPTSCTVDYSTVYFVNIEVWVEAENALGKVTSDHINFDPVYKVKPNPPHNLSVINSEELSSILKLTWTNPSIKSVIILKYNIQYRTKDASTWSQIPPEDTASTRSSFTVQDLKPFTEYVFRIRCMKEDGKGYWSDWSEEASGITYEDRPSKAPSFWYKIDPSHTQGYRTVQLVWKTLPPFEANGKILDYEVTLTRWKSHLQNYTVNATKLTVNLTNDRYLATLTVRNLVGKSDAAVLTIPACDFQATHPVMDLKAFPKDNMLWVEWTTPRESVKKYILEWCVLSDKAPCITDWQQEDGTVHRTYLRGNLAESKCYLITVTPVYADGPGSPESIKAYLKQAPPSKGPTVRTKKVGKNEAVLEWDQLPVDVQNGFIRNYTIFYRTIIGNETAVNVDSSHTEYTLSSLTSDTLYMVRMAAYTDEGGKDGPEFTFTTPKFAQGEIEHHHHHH
The experiment in a line: ELISA, immobilised soluble human gp130, recombinant antibody from COS1 cells. Background: An ELISA detects its analyte on a solid surface through an enzyme-linked reagent.

The target in assay [7] is T6, 可溶性ヒトgp130受容体 (soluble human gp130 …). The experiment in a line: SPR, Biacore T200, gp130 on CM5 (4023 RU), COS1 supernatant as analyte, off-rate screening. (Surface plasmon resonance follows binding to a sensor surface in real time, without labels.)
The target is the same in assay [8]. The experiment in a line: SPR, Biacore T200, gp130 amine-coupled on CM5 (389 RU), antibody as analyte.
For assay [9] the target is unchanged. The experiment in a line: SPR, Biacore T200, gp130 amine-coupled on CM5, antibody as analyte.

Data on seven molecules can be found in patent publication JP2018153172A (dated 2018).

One may read the Kd as the concentration at which binding is half-saturated. Low values mean higher affinity, high ones lower affinity. A word on the koff: it is the first-order rate constant of dissociation. Low readings indicate slow dissociation, high ones fast dissociation. By kon is commonly meant the second-order rate constant of association. High values mean fast association, low ones slow association.

Ends that are not written are not given here.

B1: 抗体C (antibody C, mouse anti-human gp130 monoclonal antibody) (antibody, V domains shown)
VH: EVQVVESGGDLLLPGGSLKLSCAVSGFTFNAYGMSWVRQTPDKRLELVATINSNGDSTYYPDSVKGRFTISRDNAKHTLYLQMSSLKSEDTAMYYCANFYGGFPYWGQGTLVTVSA
VL: VIVLTQSHKFMSTSVGDRVSITCKASQDVDTAVAWYQQKVGHSPKLLIYWAVTRHTGVPDRFTGSGSGTDFTLTISNVQSEDLADYFCQQYSSYPYTFGGGTKLEIKR
notes: Mouse IgG2a, kappa; Entries are the polypeptides as encoded by the cDNA (leader probably included)
With B1, the binding result in assay [1], in assay [2], in assay [3], in assay [4], in assay [5] and in assay [6] was “binds” in each case.

B2: 抗体B (antibody B, mouse anti-human gp130 monoclonal antibody) (antibody, V domains shown)
VH: EVQLQQSGAELVKPGASVKLSCTASGFNIRDTYMHWVKQRPEQGLEWIGRIDPANGNTKYDPKFQDKATMTADTSSNTAYLQLSSLTSEDTAVYYCARRGNYFYAMDYWGQGTSVTVSS
VL: DIVLTQSPASLAVSLGQRATISCRASESVEYYGTSLMQWYQQKPGQPPKLLIYVASNVESGVPARFSGSGSGTDFSLNIHPVEEDDIAMYFCQQSRKVPWTFGGGTKLEIKR
notes: Mouse IgG2b, kappa; Entries are the polypeptides as encoded by the cDNA (leader probably included)
Turning to B2, the binding result in assay [1], in assay [2], in assay [3], in assay [4], in [5] and in assay [6] was “binds” throughout.

B3: ヒト化抗体A (H鎖 pFU-AH2, L鎖 AL−4F1) (antibody, V domains shown)
VH: QVQLQQPGAELVQPGTSVRLSCKASGYTFTDYNMDWVKQRPGQGLEWIGDINSHSGGIIYNQKFKDKATLTVDKSSSTAYMQLSSLTSEDSAVYYCTRTYYVYGHFFDYWGQGTLVTVSA
VL: DIQMTQSPSSLSASVGDRVTITCNVSSSVTSMYWYQQKQGKSPQLLVYLTSNLASGVPSRFSGSGSGTQFSLKINNLQPEDFGSYYCQQWSTNPLTFGQGTKLDLKR
notes: also called AL-L4F1 with AH2
With B3, the binding result in assay [7] was “binds”.

B4: ヒト化抗体A (H鎖 pFU-AH2, L鎖 AL−6E6) (antibody, V domains shown)
VH: QVQLQQPGAELVQPGTSVRLSCKASGYTFTDYNMDWVKQRPGQGLEWIGDINSHSGGIIYNQKFKDKATLTVDKSSSTAYMQLSSLTSEDSAVYYCTRTYYVYGHFFDYWGQGTLVTVSA
VL: ELVLTQSPGTLSLSAGERATLSCNVSSSVTSMYWYQQKPGKAPKLLIYLTSNLASGVPSRFSGSGSGTDYTFTISSLQPEDIATYYCQQWSTNPLTFGQGTKVEIKR
notes: also called AL-L6E6 with AH2
Regarding B4, in assay [7], the binding result is reported as “binds”.

B5: ヒト化抗体A (H鎖 pFU-AH2, L鎖 AL−14A10) (antibody, V domains shown)
VH: QVQLQQPGAELVQPGTSVRLSCKASGYTFTDYNMDWVKQRPGQGLEWIGDINSHSGGIIYNQKFKDKATLTVDKSSSTAYMQLSSLTSEDSAVYYCTRTYYVYGHFFDYWGQGTLVTVSA
VL: DIQMTQSPSTLSASIGDRVTITCNVSSSVTSMYWYQQKPGKAPKLLIYLTSNLASGVPSRFSGSGSGTDFTLTISSLQPEDFATYYCQQWSTNPLTFGQGTKLEIKR
notes: also called AL-L14A10 with AH2
Turning to B5, in assay [7], the binding result was “binds”.

B6: ヒト化抗体AH2−L13H10 (antibody, V domains shown)
VH: QVQLQQPGAELVQPGTSVRLSCKASGYTFTDYNMDWVKQRPGQGLEWIGDINSHSGGIIYNQKFKDKATLTVDKSSSTAYMQLSSLTSEDSAVYYCTRTYYVYGHFFDYWGQGTLVTVSA
VL: EIVLTQSPDFQSVTPKEKVTITCNVSSSVTSMYWYQQKPGKAPKLLVYLTSNLASGVPSRFSGSGSGTDFTLTINSLEAEDAATYYCQQWSTNPLTFGQGTKLEIKR
notes: also called AH2−13H10; AH2 with AL-13H10 (AL-L13H10)
On to B6, for which, in assay [8], the Kd amounted to 2.27 nM, the dissociation rate constant (koff) worked out at 0.000203 s⁻¹ and the kon is 89300 M⁻¹ s⁻¹.

B7: 抗体A (antibody A, mouse anti-human gp130 monoclonal antibody) (antibody, mouse IgG1, kappa, V domains shown)
VH: EVLLQQSGPELVKPGASVKIPCKASGYTFTDYNMDWVKQSHGKSLEWIGDINSHSGGIIYNQKFKDKAILTVDKSSSTAYMELRSLTSEDTAVYYCARTYYVYGHFFDYWGQGTTLTVSS
VL: QSVLTQSPAFISASPGEKVTMTCNVSSSVTSMYWYQQKPGSSPKPWIYLTSNLASGVPPRFSGSGSGTSYSLTISSLEAEDAATYYCQQWSTNPLTFGAGTKLELKR
notes: Mouse IgG1, kappa; also called マウス抗体A; ヒト化前の抗体A(マウス抗体)
B7: the affinity in assay [9], expressed as Kd, was 0.667 nM. The koff in assay [9] came out at 0.000116 s⁻¹. Also, in [9], the kon stood at 174000 M⁻¹ s⁻¹. Also, the binding result in assay [1], in assay [2], in assay [3], in assay [4] and in assay [5] was “binds” each time.
